Measured values reported in patent EP1073891B1, “METHOD OF PREDICTING RECEPTOR MODULATING ACTIVITY” (Duke University, priority 1998, dated 1999).

How the values were obtained:
Assay type in all cases: cell-based
ERβ [1] = molecular target: T1, ERβ (Homo sapiens, UniProt Q92731); test: Mammalian two-hybrid of LXXLL peptides with nuclear receptors (Example 101.6); parameters: Full length receptors and selected peptides were expressed as VP16 and Gal4 DBD fusions, respectively; expressed in transfected cells; conditions: mammalian two-hybrid receptor panel
Text: (§1) Plasmids: All the Gal4DBD-peptide fusions were constructed as follows: DNA sequences code for the peptides were excised from mBAX vector with Xhol and Xbal restriction enzymes and subcloned into pMsx vector derived from pM vector (Clontech) with a linker sequence to generate infram Sall and Nhel sites for cloning. VP16ER-a construct was generated by polymerase chain reaction (PCR) of full length human ER-α cDNA with primers containing ECoRI flanking both 5' and 3' ends. […]
(§2) The interactions between different LXXLL motifs and different nuclear receptors were assayed in a mammalian two-hybrid system (Fig. 18). Full length receptors and selected peptides were expressed as VP16 and Gal4 DBD fusions, respectively. The strength of the interactions was measured by the activity of the 5xGa14Luc3 reporter gene. […]
Target sequence in this assay (Q92731 whole entry, species assumed, the tested form may be a part): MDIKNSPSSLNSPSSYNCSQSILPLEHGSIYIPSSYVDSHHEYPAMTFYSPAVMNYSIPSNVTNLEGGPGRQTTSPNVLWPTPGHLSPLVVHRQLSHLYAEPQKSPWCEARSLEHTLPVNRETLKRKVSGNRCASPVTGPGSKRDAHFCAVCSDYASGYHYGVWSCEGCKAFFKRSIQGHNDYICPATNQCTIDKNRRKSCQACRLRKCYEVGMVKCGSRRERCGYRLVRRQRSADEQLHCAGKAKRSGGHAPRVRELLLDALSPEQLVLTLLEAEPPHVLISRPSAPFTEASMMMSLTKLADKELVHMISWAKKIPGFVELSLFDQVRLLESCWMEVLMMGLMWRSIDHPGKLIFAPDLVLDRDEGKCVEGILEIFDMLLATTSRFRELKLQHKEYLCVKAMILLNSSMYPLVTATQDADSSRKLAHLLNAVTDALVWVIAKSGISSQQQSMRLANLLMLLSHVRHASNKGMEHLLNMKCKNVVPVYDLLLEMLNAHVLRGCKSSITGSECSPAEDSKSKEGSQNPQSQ

ERα = molecular target: T2, ERα (Homo sapiens, UniProt P03372); test: Disruption of ERα transcriptional activity by peptide-Gal4DBD fusions, 3xERELuc reporter in HeLa cells (Examples 101.4, 101.7)
T2 sequence (P03372 1-595): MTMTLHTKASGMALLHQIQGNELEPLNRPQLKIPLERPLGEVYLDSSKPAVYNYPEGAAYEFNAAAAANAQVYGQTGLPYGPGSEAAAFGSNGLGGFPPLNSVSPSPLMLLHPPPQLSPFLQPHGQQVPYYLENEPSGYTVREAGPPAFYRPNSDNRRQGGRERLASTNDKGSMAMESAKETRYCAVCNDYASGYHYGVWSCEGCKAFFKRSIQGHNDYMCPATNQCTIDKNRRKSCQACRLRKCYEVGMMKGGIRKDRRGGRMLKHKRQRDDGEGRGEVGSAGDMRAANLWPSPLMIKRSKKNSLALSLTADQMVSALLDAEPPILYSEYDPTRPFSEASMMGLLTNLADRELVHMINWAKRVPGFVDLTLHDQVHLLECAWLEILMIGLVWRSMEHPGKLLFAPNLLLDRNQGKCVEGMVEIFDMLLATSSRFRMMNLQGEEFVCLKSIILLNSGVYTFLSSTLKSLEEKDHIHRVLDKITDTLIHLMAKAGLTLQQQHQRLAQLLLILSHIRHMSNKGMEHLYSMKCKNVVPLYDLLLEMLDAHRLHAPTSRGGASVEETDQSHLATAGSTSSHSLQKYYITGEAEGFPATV
Procedure: HeLa cells were transfected with ERα expression plasmid (RST7ERα), 3xERELuc reporter, pCMVβgal along with different peptide-Gal4DBD fusion constructs. pM is the Gal4DBD control without peptide fusion. Luciferase activity was measured and normalized (Fig. 16). The ability of different peptides to disrupt ERα transcriptional activity correlates with the affinity of these peptides to ERα as measured in mammalian two-hybrid assays in [Figure 15(A)]. […] Two copies of LXXLL motifs interact synergistically to disrupt ER transcriptional activity. 2XF6: two copies of F6 peptide was constructed in tandem with a 54-amino acid spacing linker that has the same sequence as in that in between GRIP-1 NR box II and NR box III. F6G:Ga14DBD-F6 fusion with only one copy of F6 peptide plus the linker. Transient transfection was performed in HeLa cells with 3xERELuc, RST7ERα, pCMVβgal and increasing amount of Gal4DBD-peptide fusion constructs as indicated in the X-axis.
(§3) It contains the LXXLL motif. […] HeLa cells were transfected with either ERα or ERβ expression plasmids along with 3xERELuc reporter, pCMVβgal and peptide-DBD fusion constructs as indicated.

ERβ [2] = molecular target: T1, ERβ; test: Disruption of ERβ transcriptional activation by peptide-DBD fusions, 3xERELuc reporter in HeLa cells (Example 101.7); conditions: 17β-estradiol
Text: as §3
Target sequence in this assay (Q92731 whole entry, the tested form may be a part): as the sequence (Q92731 whole entry, species assumed, the tested form may be a part) above

TR = molecular target: T3, TR (Homo sapiens, UniProt P10828); test: Mammalian two-hybrid of LXXLL peptides with nuclear receptors (Example 101.6); conditions: mammalian two-hybrid receptor panel
T3 construct: Full length receptors and selected peptides were expressed as VP16 and Gal4 DBD fusions, respectively; expressed in transfected cells; host or cells: mammalian cells; the plasmid was a gift (D.D. More, Baylor College of Medicine)
T3 sequence (P10828 1-461): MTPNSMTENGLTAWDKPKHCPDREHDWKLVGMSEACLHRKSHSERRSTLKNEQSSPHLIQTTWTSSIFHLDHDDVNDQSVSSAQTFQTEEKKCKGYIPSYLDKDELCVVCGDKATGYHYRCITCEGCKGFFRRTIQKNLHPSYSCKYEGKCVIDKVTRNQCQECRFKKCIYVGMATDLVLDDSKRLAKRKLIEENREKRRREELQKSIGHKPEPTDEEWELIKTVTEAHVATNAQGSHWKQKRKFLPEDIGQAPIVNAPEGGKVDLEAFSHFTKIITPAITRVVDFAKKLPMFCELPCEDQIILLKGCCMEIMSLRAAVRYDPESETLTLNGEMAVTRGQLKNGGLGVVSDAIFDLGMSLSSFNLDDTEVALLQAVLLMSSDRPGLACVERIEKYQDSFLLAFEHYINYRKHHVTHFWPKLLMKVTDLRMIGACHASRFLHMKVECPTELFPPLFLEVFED
Text: as §1, §2

RAR = molecular target: T4, RAR (Homo sapiens, UniProt P10276); test: as above; conditions: mammalian two-hybrid receptor panel
T4 construct: Full length receptors and selected peptides were expressed as VP16 and Gal4 DBD fusions, respectively; expressed in transfected cells; host or cells: mammalian cells
T4 sequence (P10276 1-462): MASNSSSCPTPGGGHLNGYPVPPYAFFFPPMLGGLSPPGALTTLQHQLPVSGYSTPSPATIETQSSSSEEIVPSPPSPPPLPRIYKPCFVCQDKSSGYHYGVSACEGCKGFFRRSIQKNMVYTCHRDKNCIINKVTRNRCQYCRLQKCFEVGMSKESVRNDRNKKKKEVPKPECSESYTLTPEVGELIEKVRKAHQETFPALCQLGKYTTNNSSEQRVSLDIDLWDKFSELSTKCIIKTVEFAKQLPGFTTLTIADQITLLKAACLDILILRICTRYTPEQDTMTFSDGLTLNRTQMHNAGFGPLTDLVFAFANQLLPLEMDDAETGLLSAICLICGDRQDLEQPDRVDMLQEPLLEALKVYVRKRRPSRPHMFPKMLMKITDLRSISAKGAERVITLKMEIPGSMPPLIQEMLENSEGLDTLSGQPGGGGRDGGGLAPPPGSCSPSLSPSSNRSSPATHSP
Text: as §1, §2

SSIKDFPNLISLLSR [Peptide #293]
interaction with ERβ (ERβ [1]): selective interactions | disruption of ERα transcriptional activity (ERα): did not interfere | disruption of the transcriptional activation by ERβ (ERβ [2]): strongly disrupted | interaction with TRβ (TR): selective interactions | interaction with RARα (RAR): selective interactions
